Results reported in the supplement of paper PMC10567573.
± gives the standard deviation.

Test: protein stability index of a GFP-peptide fusion (GPS, HEK-293T) (PSI 1-6); higher = more stable
[1] = treatment: DMSO, c terminus: a fixed tail appended
[2] = treatment: MLN4924 1 uM, 8 h, c terminus: a fixed tail appended
[3] = treatment: DMSO, c terminus: native
[4] = treatment: MLN4924 1 uM, 8 h, c terminus: native
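Note: 24-mer peptide tiles fused after GFP, lentivirally expressed, FACS-sorted into six equal bins by GFP/DsRed ratio, decoded by Illumina sequencing, PSI is the read-weighted mean bin number.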

Row | Sequence | protein stability index [1] | protein stability index [2] | protein stability index [3] | protein stability index [4]
1 | ICLMCVHSLERAGSKQYSAAIAFT [SMG5] | 2.58 ± 0.33 | 2.42 ± 0.78 |  | 
2 | SLLQPVTPLGTSRWRKISAALPY [NCF4] |  |  | 2.54 ± 0.27 | 2.24 ± 0.28
3 | LSIINFFERLCLTWMFFFMMCVAE [PHTF1] | 3.41 ± 1.2 | 2.81 ± 0.2 |  | 
4 | ANKYLVEDVLLLNFEEMRALLDSL [KLHL14] | 2.34 ± 0.21 | 2.37 ± 0.19 |  | 
5 | WQVLCMLSLCCWGWVSGQLRYSVV [PCDHGC5] | 3.24 ± 0.69 | 3.04 ± 0.35 |  | 
6 | ASLTIPLVPETEDDRKLAALLKFH [YJU2B] | 3.05 ± 0.24 | 3.41 ± 0.24 |  | 
7 | IKLIDFGIAHKIEAGNEFKNIFGT [DAPK3] | 2.47 ± 0.31 | 2.32 ± 0.21 |  | 
8 | EIRKKVLKIYNKREEDFPSLREYN [MNAT1] | 2.45 ± 0.43 | 2.64 ± 0.51 |  | 
9 | RWDPVRRRFIQSCPIIRIPNRFLR [KLHDC10] | 2.48 ± 0.42 | 2.49 ± 0.2 |  | 
10 | KLTKESYPVVVAESMYGDFQEAMT [TENT5D] | 3.16 ± 0.2 | 3.41 ± 0.37 |  | 
11 | RQYRSIEVLIGAGYSTPADIWSTA [SRPK2] | 1.9 ± 0.37 | 2 ± 0.44 |  | 
12 | KTVDKHSDEYKIRRERNNIAVRKS [CEBPB] | 4.59 ± 0.17 | 4.79 ± 0.39 |  | 
13 | DQRNPAKESLETPSNGRIDIKQLI [SOAT1] | 4.13 ± 0.26 | 4.24 ± 0.23 |  | 
14 | LPNHKPKGTFKDYVRDRADLNKDK [ETS1] | 4.552 ± 0.017 | 4.74 ± 0.32 |  | 
15 | WIGKQLPTPVGAVQQDPALSSNRE [CSNK1G3] | 4.11 ± 0.19 | 4.48 ± 0.26 |  | 
16 | VSLVTAELSKDAQASAAPAAPLPE [SLC29A1] | 4.44 ± 0.18 | 4.47 ± 0.16 |  | 
17 | NIQVTGSAALFYLTNSEYRSEQSV [ZER1] | 2.63 ± 0.24 | 2.84 ± 0.19 |  | 
18 | KSSSSSSSSSSSSSSSSSSSSSGP [TMEM40] | 5.29 ± 0.15 | 5.3 ± 0.1 |  | 
19 | HHPEVPQRILRIMCRLEELGLAGR [HDAC6] | 2.09 ± 0.088 | 2.52 ± 0.7 |  | 
20 | YVQWSLPFIVFGATGLTSGLLSLL [SLC22A15] | 3.27 ± 0.45 | 2.94 ± 0.68 |  | 
21 | KSKTRSLLKRMESLKLKSSHHSKH [DLC1] | 3.48 ± 0.14 | 3.53 ± 0.16 |  | 
22 | KEGPMIHSGSVVGAGLPQFQSISL [CLCN6] | 2.91 ± 0.12 | 2.86 ± 0.35 |  | 
23 | VERPHSGLPGKVFACLSVLFVTVT [KCNG1] | 3.03 ± 0.73 | 2.52 ± 0.38 |  | 

Row | Sequence | protein stability index [1] | protein stability index [2] | protein stability index [3] | protein stability index [4]
24 | GEARFLPKDLDPSLCTHLIYAFAG [CHIT1] | 2.36 ± 0.27 | 2.44 ± 0.49 |  | 
25 | MLDSALRFQAMEETHLRHMKALLG [FCHO1] | 2.23 ± 0.37 | 2.33 ± 0.25 |  | 
26 | AGARKIYAVEASTMAQHAEVLVKS [CARM1] | 3.79 ± 0.39 | 4.07 ± 0.58 |  | 
27 | KSVQHVVLQALFYLLDRAVDSFET [PTPN9] | 3.21 ± 0.38 | 2.58 ± 0.41 |  | 
28 | LTNSNLPEEELDFFEILRLFFPVI [CNOT7] | 2.39 ± 0.31 | 2.47 ± 0.41 |  | 
29 | MKAKQEALVKEREKQLAKKEQSKE [FAM50A] | 5.62 ± 0.24 | 5.55 ± 0.13 |  | 
30 | RSRGKVLKTKDGKLPFCAMGVSSV [CPOX] | 3.4 ± 0.2 | 3.15 ± 0.41 |  | 
31 | DLAKTGCVDLTITNLLEGAVAFMP [AUP1] | 2.21 ± 0.11 | 2.05 ± 0.32 |  | 
32 | QELIETNQQLRNELQLEQSRAANQ [CEP70] | 5.122 ± 0.01 | 5.05 ± 0.26 |  | 
33 | ELRRQAPPPPPPSRGGPPPPPPPP [WASL] | 4.49 ± 0.44 | 4.64 ± 0.09 |  | 
34 | EYQLFEELGKGAFSVVRRCMKIPT [CAMK2D] | 2.07 ± 0.27 | 2.2 ± 0.54 |  | 
35 | PECGLAKKPPEESTCFERPCFKWY [ADAMTSL2] | 3.4 ± 0.42 | 2.96 ± 0.34 |  | 
36 | QMPKFDLGPLLSEPLVLYNQNLSN [MYOZ1] | 3.15 ± 0.1 | 3 ± 0.11 |  | 
37 | ATLTTTSATSKLIHPDEDISLEER [ZNF207] | 5.23 ± 0.064 | 5.35 ± 0.27 |  | 
38 | KGCLKLCRRCYDWIHRPGCRCKNS [SPRY1] | 3.04 ± 0.2 | 3.46 ± 0.2 |  | 
39 | AVPEDLADRLVRVHGDPAVWWVSQ [FUT8] | 2.61 ± 0.29 | 2.65 ± 0.039 |  | 
40 | TERGLSRKHIIEGLKASLERLQLE [KCNAB2] | 2.5 ± 0.32 | 2.22 ± 0.19 |  | 
41 | KENQDIRLLQAQLQAQKEELQSLM [PBXIP1] | 4.05 ± 0.12 | 4.14 ± 0.22 |  | 
42 | RFPLDSAQDPDVGTNTVSFYTLSP [PCDHGC5] | 3.68 ± 0.15 | 3.88 ± 0.12 |  | 
43 | CVPPSEFSEPSFITESYQTLHPIS [ETS1] | 2.98 ± 0.19 | 3.08 ± 0.16 |  | 
44 | YQNSIDDRLLVERIFAQYMVPHNL [PDS5B] | 2.21 ± 0.55 | 2.46 ± 0.79 |  | 
45 | KRRPKAQPTTLVLPPQYVDDVISR [MED27] | 4.03 ± 0.12 | 4.06 ± 0.17 |  | 
46 | KHFLEAIENNKYGWFWVCPGGGDI [ZC3H15] | 2.8 ± 0.4 | 2.43 ± 0.39 |  | 

Row | Sequence | protein stability index [1] | protein stability index [2] | protein stability index [3] | protein stability index [4]
47 | LLEKNASVNEVDFEGRTPMHVACQ [RIPK4] | 3.83 ± 0.31 | 3.94 ± 0.16 |  | 
48 | SRVILEIDNARLAADDFRLKYENE [KRT15] | 3.62 ± 0.4 | 3.7 ± 0.15 |  | 
49 | AKHLIASMLSKNPEDRPSLDDIIR [PLK2] | 2.61 ± 0.38 | 2.79 ± 0.24 |  | 
50 | SSSNEHAAPAAKTRKQAAKKVAPL [ELOA2] | 4.85 ± 0.32 | 4.92 ± 0.26 |  | 
51 | GEGLNVIQQTTRYFSTPQTMDLFL [NANOGP8] | 2.09 ± 0.34 | 2.32 ± 0.057 |  | 
52 | DLDSRTDSDIPEIPPSSDRTPEIL [CDS1] | 5.42 ± 0.21 | 5.51 ± 0.21 |  | 
53 | LASAYTGRLSMAAADIVNFLTVGS [ZBTB22] | 2.77 ± 0.28 | 3.09 ± 0.66 |  | 
54 | IARDQTKSIVEKIQAKLPGIAKKK [RTN3] | 3.8 ± 0.15 | 3.75 ± 0.32 |  | 
55 | KPWDFPSVHNDLWESWFVPDPAGI [GLT8D2] | 2.96 ± 0.38 | 2.69 ± 0.16 |  | 
56 | TYEKLSRAMRYYYKREILERVDGR [ELF3] | 2.21 ± 0.4 | 2.26 ± 0.37 |  | 
57 | LCKVLGVLFSVAGGLFVGKEGPMI [CLCN6] | 2.73 ± 0.25 | 2.89 ± 0.5 |  | 
58 | AAALKCQLCEKAPKEATVMCEQCD [TRIM9] | 5.33 ± 0.22 | 5.4 ± 0.15 |  | 
59 | RSPIIDVKNDRDRVGHKSIPMRNL [SERPINB5] | 3.83 ± 0.13 | 4 ± 0.36 |  | 
60 | LGNLVEGLDFHRFYFENLWSRNSK [CAMK2A] | 2.2 ± 0.47 | 2.51 ± 0.24 |  | 
61 | RRRQRSEKKKAHYRQSSFPHCSDL [KCNA4] | 3.66 ± 0.16 | 3.98 ± 0.19 |  | 
62 | PGSIIGPQQHFLEEKQASLWVQGD [CDC14A] | 4.04 ± 0.37 | 4.14 ± 0.4 |  | 
63 | DRKGYMFDYEYDWIGKQLPTPVGA [CSNK1G3] | 2.55 ± 0.23 | 2.62 ± 0.25 |  | 
64 | LIWSYPAGSLTFPVRPFFYTGHR [TRIM43] |  |  | 1.97 ± 0.37 | 2.15 ± 0.11
65 | RALQEEERAAAQARRELQAEREAL [ZBED3] | 5.36 ± 0.19 | 5.45 ± 0.18 |  | 
66 | GLGASTAEISARTMQSMFAKNFHV [PTPRD] | 2.38 ± 0.26 | 2.56 ± 0.35 |  | 
67 | QFRVIGPRHPIRALVGDEVELPCR [MOG] | 3.63 ± 0.31 | 3.64 ± 0.45 |  | 
68 | GTADGADLRTVDPETQARLEALLE [ANKRD17] | 4.42 ± 0.15 | 4.5 ± 0.21 |  | 
69 | HLFLLGYSDGADDTFAAYTREQLY [MCOLN1] | 2.08 ± 0.29 | 2.35 ± 0.18 |  | 

Row | Sequence | protein stability index [1] | protein stability index [2] | protein stability index [3] | protein stability index [4]
70 | LNAELEEKMMQEAEKLKAQGEYSR [CCDC89] | 3.61 ± 0.28 | 3.71 ± 0.39 |  | 
71 | FLMLINLGLGSMIGTMAGITTPII [SLC6A17] | 3.1 ± 0.31 | 3.03 ± 0.76 |  | 
72 | LLIYTVKIRRFNKAKPEPDILEEE [TMEM192] | 2.31 ± 0.32 | 2.29 ± 0.31 |  | 
73 | TSPHFSTRHEGSFQVPVLCAVMNV [CD69] | 2.81 ± 0.51 | 2.63 ± 0.59 |  | 
74 | RIQIWFQNRRAKLKRSHRESQFLM [HESX1] | 2.43 ± 0.76 | 2.15 ± 0.67 |  | 
75 | KLGLGIDEDEVAAEEPNAAVPDEI [HSP90AB1] | 5.8 ± 0.18 | 5.48 ± 0.24 |  | 
76 | GSLEKALPIIQSNQVSSNSWGIAG [DLC1] | 3.35 ± 0.3 | 3.6 ± 0.2 |  | 
77 | IELANIRDEVAFHTAKCEKLQKEK [MTUS2] | 4.31 ± 0.3 | 4.46 ± 0.44 |  | 
78 | NESLASLPLRVSFCPLSLWRWQLY [CLPTM1] | 2.45 ± 0.41 | 2.18 ± 0.4 |  | 
79 | IQENQRNLYEEGRTAFLWRGNVVL [TRIM43] | 2.21 ± 0.43 | 2.61 ± 0.37 |  | 
80 | MRKTSNSCIMENGHQPGTGPGDGP [SMTNL2] | 4.42 ± 0.064 | 4.55 ± 0.11 |  | 
81 | GAKDHASIQMNVAEVSWEPGRREG [RPS21] | 4.14 ± 0.49 | 4.41 ± 0.41 |  | 
82 | LSRLSVNSVTAGDYSRPLHISTFI [TSN] | 2.42 ± 0.61 | 2.31 ± 0.24 |  | 
83 | GRVEVLKNGEWGTVCDDKWDLVSA [LOXL2] | 4.2 ± 0.32 | 3.56 ± 0.64 |  | 
84 | DLYKKVKKNSSPPLSLYGQLLWRE [CRY1] | 2.64 ± 0.39 | 2.67 ± 0.67 |  | 
85 | KWLLWTEHQYRLPPMGKAFQELAG [SPDEF] | 2.44 ± 0.55 | 2.16 ± 0.48 |  | 
86 | ETEARYSSQLAQMQCLISNVEAQL [KRT36] | 3.26 ± 0.31 | 3.2 ± 0.34 |  | 
87 | ELPTRIHEEVYFEPSSSKDSDENS [MIA2] | 5.34 ± 0.14 | 4.79 ± 0.58 |  | 
88 | WATIEGLVELLQPFKQVAEMLSAS [ZBED1] | 3.01 ± 0.76 | 2.94 ± 0.8 |  | 
89 | AGLASGLLNQQSLKRSANQMGVSA [MED27] | 3.62 ± 0.06 | 3.69 ± 0.096 |  | 
